Key:
Peptide 3 ([…]) = Peptide 3 ([…]) (Human cytomegalovirus, UniProt P69332); assay: HuProt Human Proteome Microarray, control peptide; format: binding, HCMV
From the text: The HuProt™ Human Proteome Microarray provides the largest number of unique, full-length, individually purified human proteins on a single microscope slide. It provides >21,000 unique human proteins, isoform variants, and protein fragments—covering 16,794 unique genes. This includes 15,889 of the 19,613 canonical human proteins described in the Human Protein Atlas, with broad coverage across protein subclasses. This allows thousands of interactions to be profiled in a high-throughput manner. The full-length recombinant proteins are expressed in the yeast S. cerevisiae, purified, and printed on glass slides in duplicate along with a set of control proteins (GST, BSA, histones, IgG, etc.). The full list of the different proteins included in the HuProt™ Human Proteome Microarray as used in this Example is provided as “List B” in the Research Disclosures publication (ISSN 0374-4353, Questel Ireland Ltd) with database numbers 707018, 707019 and 707020, each entitled “Large scale protein arrange target protein identities” and each digitally published on 27 Jan. 2023, the contents of each of which are incorporated herein by reference in their entirety, fo the purposes of the disclosure of the proteins defined by “List B”. “List B” begins in Research Disclosures publication 707018, is continued in Research Disclosures publication 707019, and concludes Research Disclosures publications 707020, and so the three publications are to be read consecutively as a single disclosure of the “List B” proteins. The HuProt™ microarray is not restricted to a particular type of surface coating, although the default is glass coated with ultrathin nitrocellulose film for the non-covalent, yet irreversible, capture of active proteins to the surface.
Samples of humanised 7B1F3 and mouse 7B1F3 antibodies were analysed for binding specificities on HuProt™ human proteome arrays. A peptide with the sequence TDVLNQSKPVTL (“Peptide 3”) was added to the arrays at 0.1 mg/ml as a control.
After blocking, the arrays were probed with the antibody samples (0.1 μg/ml) at room temperature for 1 hour. Then the arrays were washed with TBST for 10 min×3 and probed with Alexa647-anti-human IgG Fc or Alexa647-anti-mouse IgG secondary antibodies under conditions optimized by CDI Labs for signal detection.
• Non-specific hits that directly bind to the secondary antibodies were eliminated from the analysis of the samples. • CDI software was used to quantify the specificity of each individual sample to specific proteins on the array based on Z Scores. • Z score is the average Z score of the duplicate spots of a given protein (each protein is printed in duplicate on a HuProt™ array). The Z score of each spot on a given array is calculated according to the algorithm below:
Z=[F635−F635(avg)]/F635(std) • F635(avg) and F635(std) are the average and standard deviation of the F635 values of all spots on the array, respectively. • S score is the difference of the Z Scores of a given protein and the one ranked next to it. If the S score of the top hit is >3, the antibody is considered to be highly specific for the top hit. • F635 is the average foreground signal intensity of 2 replicate spots of a given protein in the detection channel (635 nm). • B635 is the average background signal intensity of 2 replicate spots of a given protein in the detection channel (635 nm).

BSA = BSA (Bos taurus, UniProt P02769); assay: ELISA, BSA coating (control); format: binding; settings: ECD1 subclones
BSA, sequence (P02769 25-607): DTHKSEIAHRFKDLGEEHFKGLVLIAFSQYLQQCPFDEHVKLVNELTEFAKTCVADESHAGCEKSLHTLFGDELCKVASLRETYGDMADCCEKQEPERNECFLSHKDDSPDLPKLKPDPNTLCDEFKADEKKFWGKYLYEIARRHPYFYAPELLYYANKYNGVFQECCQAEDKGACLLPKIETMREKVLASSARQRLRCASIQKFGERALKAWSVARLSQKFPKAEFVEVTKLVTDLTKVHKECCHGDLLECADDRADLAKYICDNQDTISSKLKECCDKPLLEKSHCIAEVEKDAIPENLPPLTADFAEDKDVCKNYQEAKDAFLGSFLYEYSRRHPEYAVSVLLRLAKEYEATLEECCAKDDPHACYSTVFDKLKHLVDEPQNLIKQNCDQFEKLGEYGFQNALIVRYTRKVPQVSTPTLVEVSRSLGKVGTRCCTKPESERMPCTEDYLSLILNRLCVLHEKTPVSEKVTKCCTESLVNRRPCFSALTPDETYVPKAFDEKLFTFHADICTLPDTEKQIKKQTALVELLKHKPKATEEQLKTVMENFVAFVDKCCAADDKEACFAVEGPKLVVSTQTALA
Protocol: Microtiter plate wells were coated with 100 μl of the solution containing: (i) Bio-Peptide-N; or (ii) Bio-Peptide-1 and Bio-Peptide-2; at a concentration of between 1-10 μg/ml in coating buffer, consisting of Na2CO3, 1.5 g and NaHCO3, 2.93 g in 1 L of distilled water in pH 9.6, and then incubated for 1-2 hours at room temperature. The plate was washed 3 times in wash buffer consisting of PBS containing 0.05% v/v Tween-20 and blotted with paper towels thereafter. 150 μl of blocking solution containing Phosphate buffered saline (PBS) containing 1% w/v BSA, was added to each well and the plate was incubated for 2 hours at 37° C. The wells were washed 4 times in wash buffer and blotted on paper towels after the last wash. 100 μl of antibody dilution was added to each well and the plate was incubated for 1 hour at 37° C. and thereafter washed 3 times in wash buffer. 100 μl enzyme-conjugated secondary antibody (appropriately diluted in wash buffer) was added to each well and the plate was incubated for 1 hour at 37° C. The wells were then again washed 3 times in wash buffer and blotted with paper towels after the last wash. […] The absorbance values were read immediately at the appropriate wavelength and the data analyzed by Cmax Plus, Molecular Devices, San Jose, CA 95134, USA,

pancreatic tissue = assay: IHC on pancreatic tissues; design: species or system human
From the text: FIG. 20. Some pancreatic tissues were studied to exclude general off-target binding of the 28-13-5G6-1D3 to this tissue type. […] The HCMV ISH is negative indicating absence of viral HCMV DNA in the normal pancreatic tissue sample. […] Thus, the same sample is positive for both HCMV proteins US28 and IE and HCMV DNA but negative for the negative control IgG indicating specific antibody binding. The US28 protein staining is cytoplasmic as expected, the IE protein is mostly located in the cell nucleus as expected since it is a nuclear protein. […] A colour version of FIG. 20 is also provided.

[1] = system: human primary adrenal cortical, kidney epithelial, cardiac microvascular endothelial, liver epithelial and vein smooth muscle cells; assay: Flow cytometry off-target surface binding to human primary cells; settings: all five cell types, PE-labelled antibody
Protocol: FIG. 19. A. Flowcytometry analysis with the 28-13-5G6-1D3-PE antibody were conducted on various human primary cells to exclude general off-target binding to the surface of these cell types. The following cell lines were studied: human primary adrenal cortical cells, human primary kidney epithelial cells, human primary cardiac microvascular endothelial cells, human primary liver epithelial cells and human primary vein smooth muscle cells. […] B. Original human primary cardiac cells were not available, and human cardiac tissue samples were therefore studied for staining of 13-5G6-1D3 by immunohistochemistry. […] If there were HCMV infections present in the human heart, they were always of productive infection type. […] The positive 13-5G6-1D3 and HCMV ISH results are marked with arrows in the figure. A colour version of FIG. 19 is also provided.

[2] = Table 9, top hit Peptide 3, antibody 0.1 μg/ml

Molecule	S Score (Peptide 3 ([…]); Protein: Peptide 3)	Z Score (Peptide 3 ([…]); Protein: Peptide 3)	F635 (Peptide 3 ([…]); Protein: Peptide 3, antibody 0.1 μg/ml)	Peptide 3 Signal (Peptide 3 ([…]); Table 9, antibody 0.1 μg/ml)	Top Hit (Peptide 3 ([…]); Table 9, antibody 0.1 μg/ml)	S Score (Peptide 3 ([…]); [2])	Z Score (Peptide 3 ([…]); [2])	Signal (Peptide 3 ([…]); Table 9, top hit, 65535 is the saturation signal intensity)	absorbance, Coating: BSA (BSA)	IHC staining of normal pancreatic tissue (pancreatic tissue; HCMV ISH negative sample)	IHC staining of pancreatic tissue sample from another patient (pancreatic tissue; HCMV ISH positive sample)	surface binding to human primary cells [1] [%]
7B1F3: mouse IgG1 kappa antibody against US28 ECD1 Peptide-N; VH SEQ ID NO: 211, VL SEQ ID NO: 213 (antibody, V domains shown, Mature form of VH sequence of 7B1F3, without the leader sequence; Mature form of VL sequence of 7B1F3, without the leader sequence) VH: EVQLQQSGAELAKPGASVKMSCKASGYTFTNYWMHWVKQRPGQGLEWIGYVNPRTGYTEYNQKFKDKATLTADKSSRTAYMQLSSLTSEDSAVYSCARILNGTGFAYWGQGTLVTVSA VL: DIVLTQSPSSLTVSVGEKFTMSCKSSQSLLYSSNQKNYLAWYQQKPGQSPKLLIYWASTRESGVPDRFTGSGSGTDFTLAISSVKPEDLAIYYCQQYYSFPLTFGAGTKLEIK	116.095	145.092	49972	49972	Peptide 3	116.095	145.092	49972	0.0474	–	–	–
13-5G6-1D3: mouse monoclonal IgG1 kappa antibody against US28 ECD3; VH SEQ ID NO: 12, VL SEQ ID NO: 18 (antibody, V domains shown, Mature form of VH sequence of 1D3, without the leader sequence; Mature form of VL sequence of 1D3, without the leader sequence) VH: EVKLVESGGGLVQPGGSLRLACATSGFTFTDYYMSWVRQPPGKALEWLGFIRSKANGYTTEYSASVKGRFTISRDNSQSILYLQMNTLRSEDSATYYCARDERRTAWLAYWGQGTLVTVSA VL: DVLMTQTPLSLPVSLGDQASISCRSSQSIVHSNGNTYLDWYLQKPGQSPKLLIYKVSNRFSGVPDRFSGSGSGTDFTLKISRVEAEDLGVYYCFQGSHVPTWTFGGGTKLEIK	–	–	–	–	–	–	–	–	–	negative staining	positive	< 1
